Assay results from PMC10786891, “Massively parallel profiling of RNA-targeting CRISPR-Cas13d”.

T1: EsCas13d, nuclease-dead (Eubacterium siraeum, UniProt B0MS50, R295A;H300A;R849A;H854A)
T1 sequence: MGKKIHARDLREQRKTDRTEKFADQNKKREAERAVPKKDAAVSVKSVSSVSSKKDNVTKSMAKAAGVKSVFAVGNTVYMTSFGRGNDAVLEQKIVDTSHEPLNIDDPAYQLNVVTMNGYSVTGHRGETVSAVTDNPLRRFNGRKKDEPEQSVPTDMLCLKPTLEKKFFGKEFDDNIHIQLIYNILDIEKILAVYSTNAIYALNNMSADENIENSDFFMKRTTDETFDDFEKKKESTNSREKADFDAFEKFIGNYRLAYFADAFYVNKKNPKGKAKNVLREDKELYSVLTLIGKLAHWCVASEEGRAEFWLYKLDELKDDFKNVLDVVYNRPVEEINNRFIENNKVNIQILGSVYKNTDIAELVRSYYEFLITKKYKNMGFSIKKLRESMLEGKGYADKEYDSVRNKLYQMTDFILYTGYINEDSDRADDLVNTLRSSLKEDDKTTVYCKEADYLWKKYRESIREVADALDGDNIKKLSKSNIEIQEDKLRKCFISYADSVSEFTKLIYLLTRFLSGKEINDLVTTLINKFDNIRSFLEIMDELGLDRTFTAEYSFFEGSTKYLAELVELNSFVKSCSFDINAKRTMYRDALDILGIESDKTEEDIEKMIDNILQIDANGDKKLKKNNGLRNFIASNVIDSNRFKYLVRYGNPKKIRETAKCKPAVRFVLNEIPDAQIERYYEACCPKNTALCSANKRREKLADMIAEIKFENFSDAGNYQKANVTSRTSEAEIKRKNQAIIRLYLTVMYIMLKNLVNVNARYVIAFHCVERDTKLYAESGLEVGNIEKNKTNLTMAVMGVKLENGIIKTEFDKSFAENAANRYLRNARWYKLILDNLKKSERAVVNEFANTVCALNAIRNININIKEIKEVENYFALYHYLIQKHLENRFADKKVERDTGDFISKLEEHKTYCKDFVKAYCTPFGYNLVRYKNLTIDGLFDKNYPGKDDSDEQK


Target: T1, EsCas13d, nuclease-dead
Test: crRNA (strand 1, pre-loaded); Mg2+; 40 mM Tris-HCl pH 7.5, 150 mM NaCl, 6 mM MgCl2, 1 mM DTT, 0.1% Tween-20, 0.2 mg/ml BSA; 25 C; 10 min per concentration, then washed
Settings: tags: His6-TwinStrep-SUMO cleaved; N-terminal SNAP kept (SNAP-Surface 488); label: 3' end held by stalled T7 RNA polymerase

Binder	Kd [nM]
target 1 insG 3' of 11,insA 3' of 4 (mixed) RNA 1: CACCCGUGCAAAAAUGCAGGGGUCUAAAACUGAGCGGAUAACCUCUCUAUGG RNA 2: GGGAAUGGAUCCACAUCUACGAAUUCGUACCAUAGAGAGGUGUAUCCGCAUCACCGAGAUCGGAAGAGCACACGU	~63
target 1 insG 3' of 18,insC 3' of 15 (mixed) RNA 1: CACCCGUGCAAAAAUGCAGGGGUCUAAAACUGAGCGGAUAACCUCUCUAUGG RNA 2: GGGAAUGGAUCCACAUCUACGAAUUCGUACCAUAGGAGCAGGUUAUCCGCUCACCGAGAUCGGAAGAGCACACGU	62 ± 11
target 1 insG 3' of 9,insU 3' of 2 (mixed) RNA 1: CACCCGUGCAAAAAUGCAGGGGUCUAAAACUGAGCGGAUAACCUCUCUAUGG RNA 2: GGGAAUGGAUCCACAUCUACGAAUUCGUACCAUAGAGAGGUUAGUCCGCUCUACCGAGAUCGGAAGAGCACACGU	18.9 ± 1.2
target 1 C4G,A9C (mixed) RNA 1: CACCCGUGCAAAAAUGCAGGGGUCUAAAACUGAGCGGAUAACCUCUCUAUGG RNA 2: GGGAAUGGAUCCACAUCUACGAAUUCGUACCAUAGAGAGGUUCUCCGGUCACCGAGAUCGGAAGAGCACACGU	7.2 ± 0.7
target 1 G12U,A14G (mixed) RNA 1: CACCCGUGCAAAAAUGCAGGGGUCUAAAACUGAGCGGAUAACCUCUCUAUGG RNA 2: GGGAAUGGAUCCACAUCUACGAAUUCGUACCAUAGAGGGUUUAUCCGCUCACCGAGAUCGGAAGAGCACACGU	32.7 ± 3
target 1 insC 3' of 18,insC 3' of 8 (mixed) RNA 1: CACCCGUGCAAAAAUGCAGGGGUCUAAAACUGAGCGGAUAACCUCUCUAUGG RNA 2: GGGAAUGGAUCCACAUCUACGAAUUCGUACCAUACGAGAGGUUAUCCCGCUCACCGAGAUCGGAAGAGCACACGU	44.9 ± 3
target 1 C6G,C22U (mixed) RNA 1: CACCCGUGCAAAAAUGCAGGGGUCUAAAACUGAGCGGAUAACCUCUCUAUGG RNA 2: GGGAAUGGAUCCACAUCUACGAAUUCGUAUCAUAGAGAGGUUAUCGGCUCACCGAGAUCGGAAGAGCACACGU	14 ± 1.1
target 1 insU 3' of 20,insG 3' of 1 (mixed) RNA 1: CACCCGUGCAAAAAUGCAGGGGUCUAAAACUGAGCGGAUAACCUCUCUAUGG RNA 2: GGGAAUGGAUCCACAUCUACGAAUUCGUACCAUUAGAGAGGUUAUCCGCUCAGCCGAGAUCGGAAGAGCACACGU	11.8 ± 1.2
target 1 insU 3' of 22,insG 3' of 22 (mixed) RNA 1: CACCCGUGCAAAAAUGCAGGGGUCUAAAACUGAGCGGAUAACCUCUCUAUGG RNA 2: GGGAAUGGAUCCACAUCUACGAAUUCGUACUGCAUAGAGAGGUUAUCCGCUCACCGAGAUCGGAAGAGCACACGU	30.3 ± 2.5
target 1 insC 3' of 16,insG 3' of 10 (mixed) RNA 1: CACCCGUGCAAAAAUGCAGGGGUCUAAAACUGAGCGGAUAACCUCUCUAUGG RNA 2: GGGAAUGGAUCCACAUCUACGAAUUCGUACCAUAGACGAGGUUGAUCCGCUCACCGAGAUCGGAAGAGCACACGU	79 ± 15
target 1 insC 3' of 9,insG 3' of 3 (mixed) RNA 1: CACCCGUGCAAAAAUGCAGGGGUCUAAAACUGAGCGGAUAACCUCUCUAUGG RNA 2: GGGAAUGGAUCCACAUCUACGAAUUCGUACCAUAGAGAGGUUACUCCGCUGCACCGAGAUCGGAAGAGCACACGU	7.3 ± 0.5
target 1 insA 3' of 19,insA 3' of 15 (mixed) RNA 1: CACCCGUGCAAAAAUGCAGGGGUCUAAAACUGAGCGGAUAACCUCUCUAUGG RNA 2: GGGAAUGGAUCCACAUCUACGAAUUCGUACCAUAAGAGAAGGUUAUCCGCUCACCGAGAUCGGAAGAGCACACGU	16.4 ± 1.8
target 1 insU 3' of 20,insC 3' of 1 (mixed) RNA 1: CACCCGUGCAAAAAUGCAGGGGUCUAAAACUGAGCGGAUAACCUCUCUAUGG RNA 2: GGGAAUGGAUCCACAUCUACGAAUUCGUACCAUUAGAGAGGUUAUCCGCUCACCCGAGAUCGGAAGAGCACACGU	10.1 ± 1
target 1 insA 3' of 19,insU 3' of 9 (mixed) RNA 1: CACCCGUGCAAAAAUGCAGGGGUCUAAAACUGAGCGGAUAACCUCUCUAUGG RNA 2: GGGAAUGGAUCCACAUCUACGAAUUCGUACCAUAAGAGAGGUUAUUCCGCUCACCGAGAUCGGAAGAGCACACGU	32.5 ± 3.1
target 1 insG 3' of 8 (mixed) RNA 1: CACCCGUGCAAAAAUGCAGGGGUCUAAAACUGAGCGGAUAACCUCUCUAUGG RNA 2: GGGAAUGGAUCCACAUCUACGAAUUCGUACCAUAGAGAGGUUAUGCCGCUCACCGAGAUCGGAAGAGCACACGU	12.9 ± 0.5
target 1 insA 3' of 21,insG 3' of 21 (mixed) RNA 1: CACCCGUGCAAAAAUGCAGGGGUCUAAAACUGAGCGGAUAACCUCUCUAUGG RNA 2: GGGAAUGGAUCCACAUCUACGAAUUCGUACCAGAUAGAGAGGUUAUCCGCUCACCGAGAUCGGAAGAGCACACGU	40 ± 5
target 1 insC 3' of 22,insG 3' of 7 (mixed) RNA 1: CACCCGUGCAAAAAUGCAGGGGUCUAAAACUGAGCGGAUAACCUCUCUAUGG RNA 2: GGGAAUGGAUCCACAUCUACGAAUUCGUACCCAUAGAGAGGUUAUCGCGCUCACCGAGAUCGGAAGAGCACACGU	16.2 ± 3
target 1 insC 3' of 20,insU 3' of 18 (mixed) RNA 1: CACCCGUGCAAAAAUGCAGGGGUCUAAAACUGAGCGGAUAACCUCUCUAUGG RNA 2: GGGAAUGGAUCCACAUCUACGAAUUCGUACCACUAUGAGAGGUUAUCCGCUCACCGAGAUCGGAAGAGCACACGU	6.12 ± 0.3
target 1 insU 3' of 6,insC 3' of 3 (mixed) RNA 1: CACCCGUGCAAAAAUGCAGGGGUCUAAAACUGAGCGGAUAACCUCUCUAUGG RNA 2: GGGAAUGGAUCCACAUCUACGAAUUCGUACCAUAGAGAGGUUAUCCUGCUCCACCGAGAUCGGAAGAGCACACGU	10.5 ± 0.7
target 1 insU 3' of 15,insA 3' of 11 (mixed) RNA 1: CACCCGUGCAAAAAUGCAGGGGUCUAAAACUGAGCGGAUAACCUCUCUAUGG RNA 2: GGGAAUGGAUCCACAUCUACGAAUUCGUACCAUAGAGUAGGUAUAUCCGCUCACCGAGAUCGGAAGAGCACACGU	27.8 ± 1.7
target 1 U3A,U8C (mixed) RNA 1: CACCCGUGCAAAAAUGCAGGGGUCUAAAACUGAGCGGAUAACCUCUCUAUGG RNA 2: GGGAAUGGAUCCACAUCUACGAAUUCGUACCAUAGAGAGGUUACCCGCACACCGAGAUCGGAAGAGCACACGU	7.6 ± 0.7
target 1 U10C,U11A (mixed) RNA 1: CACCCGUGCAAAAAUGCAGGGGUCUAAAACUGAGCGGAUAACCUCUCUAUGG RNA 2: GGGAAUGGAUCCACAUCUACGAAUUCGUACCAUAGAGAGGACAUCCGCUCACCGAGAUCGGAAGAGCACACGU	35.7 ± 2.9
target 1 insU 3' of 20,insU 3' of 1 (mixed) RNA 1: CACCCGUGCAAAAAUGCAGGGGUCUAAAACUGAGCGGAUAACCUCUCUAUGG RNA 2: GGGAAUGGAUCCACAUCUACGAAUUCGUACCAUUAGAGAGGUUAUCCGCUCAUCCGAGAUCGGAAGAGCACACGU	14.1 ± 1.4
target 1 insU 3' of 18,insU 3' of 4 (mixed) RNA 1: CACCCGUGCAAAAAUGCAGGGGUCUAAAACUGAGCGGAUAACCUCUCUAUGG RNA 2: GGGAAUGGAUCCACAUCUACGAAUUCGUACCAUAUGAGAGGUUAUCCGCUUCACCGAGAUCGGAAGAGCACACGU	20.2 ± 1.3
target 1 complement block 7-12 (mixed) RNA 1: CACCCGUGCAAAAAUGCAGGGGUCUAAAACUGAGCGGAUAACCUCUCUAUGG RNA 2: GGGAAUGGAUCCACAUCUACGAAUUCGUACCAUAGAGAGCAAUAGCGCUCACCGAGAUCGGAAGAGCACACGU	16.6 ± 0.7
target 1 U8C,G17A (mixed) RNA 1: CACCCGUGCAAAAAUGCAGGGGUCUAAAACUGAGCGGAUAACCUCUCUAUGG RNA 2: GGGAAUGGAUCCACAUCUACGAAUUCGUACCAUAAAGAGGUUACCCGCUCACCGAGAUCGGAAGAGCACACGU	61 ± 10
target 1 insU 3' of 21,insC 3' of 9 (mixed) RNA 1: CACCCGUGCAAAAAUGCAGGGGUCUAAAACUGAGCGGAUAACCUCUCUAUGG RNA 2: GGGAAUGGAUCCACAUCUACGAAUUCGUACCUAUAGAGAGGUUACUCCGCUCACCGAGAUCGGAAGAGCACACGU	40.1 ± 2.9
target 1 insU 3' of 12,insA 3' of 10 (mixed) RNA 1: CACCCGUGCAAAAAUGCAGGGGUCUAAAACUGAGCGGAUAACCUCUCUAUGG RNA 2: GGGAAUGGAUCCACAUCUACGAAUUCGUACCAUAGAGAGGUUUAAUCCGCUCACCGAGAUCGGAAGAGCACACGU	10.3 ± 0.4
